From publication PMC8298264, “Function of cofactor Akirin2 in the regulation of gene expression in model human neutrophil-like HL60 cells” (Bioscience Reports, 2021)

B1: Protein Churchill (protein, UniProt Q8WUH1 1-112, looked up)
Protein Churchill: MCGDCVEKEYPNRGNTCLENGSFLLNFTGCAVCSKRDFMLITNKSLKEEDGEEIVTYDHLCKNCHHVIARHEYTFSIMDEFQEYTMLCLLCGKAEDTISILPDDPRQMTLLF
B2: Serglycin (protein, UniProt P10124 28-158, looked up)
Serglycin: YPTRRARYQWVRCNPDSNSANCLEEKGPMFELLPGESNKIPRLRTDLFPKTRIQDLNRIFPLSEDYSGSGFGSGSGSGSGSGSGFLTEMEQDYQLVDESDAFHDNLRSLDRNLPSDSQDLGQHGLEEDFML
B3: Spartin (protein, UniProt Q8N0X7 1-666, looked up)
Spartin: MEQEPQNGEPAEIKIIREAYKKAFLFVNKGLNTDELGQKEEAKNYYKQGIGHLLRGISISSKESEHTGPGWESARQMQQKMKETLQNVRTRLEILEKGLATSLQNDLQEVPKLYPEFPPKDMCEKLPEPQSFSSAPQHAEVNGNTSTPSAGAVAAPASLSLPSQSCPAEAPPAYTPQAAEGHYTVSYGTDSGEFSSVGEEFYRNHSQPPPLETLGLDADELILIPNGVQIFFVNPAGEVSAPSYPGYLRIVRFLDNSLDTVLNRPPGFLQVCDWLYPLVPDRSPVLKCTAGAYMFPDTMLQAAGCFVGVVLSSELPEDDRELFEDLLRQMSDLRLQANWNRAEEENEFQIPGRTRPSSDQLKEASGTDVKQLDQGNKDVRHKGKRGKRAKDTSSEEVNLSHIVPCEPVPEEKPKELPEWSEKVAHNILSGASWVSWGLVKGAEITGKAIQKGASKLRERIQPEEKPVEVSPAVTKGLYIAKQATGGAAKVSQFLVDGVCTVANCVGKELAPHVKKHGSKLVPESLKKDKDGKSPLDGAMVVAASSVQGFSTVWQGLECAAKCIVNNVSAETVQTVRYKYGYNAGEATHHAVDSAVNVGVTAYNINNIGIKAMVKKTATQTGHTLLEDYQIVDNSQRENQEGAANVNVRGEKDEQTKEVKEAKKKDK
B4: Non-secretory ribonuclease (protein, UniProt P10153 28-161, looked up)
Non-secretory ribonuclease: KPPQFTWAQWFETQHINMTSQQCTNAMQVINNYQRRCKNQNTFLLTTFANVVNVCGNPNMTCPSNKTRKNCHHSGSQVPLIHCNLTTPSPQNISNCRYAQTPANMFYIVACDNRDQRRDPPQYPVVPVHLDRII
B5: Cystatin-F (protein, UniProt O76096 20-145, looked up)
Cystatin-F: GPSPDTCSQDLNSRVKPGFPKTIKTNDPGVLQAARYSVEKFNNCTNDMFLFKESRITRALVQIVKGLKYMLEVEIGRTTCKKNQHLRLDDCDFQTNHTLKQTLSCYSEVWVVPWLQHFEVPVLRCH
B6: Azurocidin (protein, UniProt P20160 27-248, looked up)
Azurocidin: IVGGRKARPRQFPFLASIQNQGRHFCGGALIHARFVMTAASCFQSQNPGVSTVVLGAYDLRRRERQSRQTFSISSMSENGYDPQQNLNDLMLLQLDREANLTSSVTILPLPLQNATVEAGTRCQVAGWGSQRSGGRLSRFPRFVNVTVTPEDQCRPNNVCTGVLTRRGGICNGDGGTPLVCEGLAHGVASFSLGPCGRGPDFFTRVALFRDWIDGVLNNPGP
B7: sp¦Q99436¦PSB7_HUMAN (protein, UniProt Q99436 44-277, looked up)
Proteasome subunit beta type-7: TTIAGVVYKDGIVLGADTRATEGMVVADKNCSKIHFISPNIYCCGAGTAADTDMTTQLISSNLELHSLSTGRLPRVVTANRMLKQMLFRYQGYIGAALVLGGVDVTGPHLYSIYPHGSTDKLPYVTMGSGSLAAMAVFEDKFRPDMEEEEAKNLVSEAIAAGIFNDLGSGSNIDLCVISKNKLDFLRPYTVPNKKGTRLGRYRCEKGTTAVLTEKITPLEIEVLEETVQTMDTS
B8: sp¦Q14019¦COTL1_HUMAN (protein, UniProt Q14019 2-142, looked up)
Coactosin-like protein: ATKIDKEACRAAYNLVRDDGSAVIWVTFKYDGSTIVPGEQGAEYQHFIQQCTDDVRLFAFVRFTTGDAMSKRSKFALITWIGENVSGLQRAKTGTDKTLVKEVVQNFAKEFVISDRKELEEDFIKSELKKAGGANYDAQTE
B9: sp¦Q92945¦FUBP2_HUMAN (protein, UniProt Q92945 2-711, looked up)
Far upstream element-binding …: SDYSTGGPPPGPPPPAGGGGGAGGAGGGPPPGPPGAGDRGGGGPGGGGPGGGSAGGPSQPPGGGGPGIRKDAFADAVQRARQIAAKIGGDAATTVNNSTPDFGFGGQKRQLEDGDQPESKKLASQGDSISSQLGPIHPPPRTSMTEEYRVPDGMVGLIIGRGGEQINKIQQDSGCKVQISPDSGGLPERSVSLTGAPESVQKAKMMLDDIVSRGRGGPPGQFHDNANGGQNGTVQEIMIPAGKAGLVIGKGGETIKQLQERAGVKMILIQDGSQNTNVDKPLRIIGDPYKVQQACEMVMDILRERDQGGFGDRNEYGSRIGGGIDVPVPRHSVGVVIGRSGEMIKKIQNDAGVRIQFKQDDGTGPEKIAHIMGPPDRCEHAARIINDLLQSLRSGPPGPPGGPGMPPGGRGRGRGQGNWGPPGGEMTFSIPTHKCGLVIGRGGENVKAINQQTGAFVEISRQLPPNGDPNFKLFIIRGSPQQIDHAKQLIEEKIEGPLCPVGPGPGGPGPAGPMGPFNPGPFNQGPPGAPPHAGGPPPHQYPPQGWGNTYPQWQPPAPHDPSKAAAAAADPNAAWAAYYSHYYQQPPGPVPGPAPAPAAPPAQGEPPQPPPTGQSDYTKAWEEYYKKIGQQPQQPGAPPQQDYTKAWEEYYKKQAQVATGGGPGAPPGSQPDYSAAWAEYYRQQAAYYGQTPGPGGPQPPPTQQGQQQAQ
B10: sp¦P29218¦IMPA1_HUMAN (protein, UniProt P29218 1-277, looked up)
Inositol monophosphatase 1: MADPWQECMDYAVTLARQAGEVVCEAIKNEMNVMLKSSPVDLVTATDQKVEKMLISSIKEKYPSHSFIGEESVAAGEKSILTDNPTWIIDPIDGTTNFVHRFPFVAVSIGFAVNKKIEFGVVYSCVEGKMYTARKGKGAFCNGQKLQVSQQEDITKSLLVTELGSSRTPETVRMVLSNMEKLFCIPVHGIRSVGTAAVNMCLVATGGADAYYEMGIHCWDVAGAGIIVTEAGGVLMDVTGGPFDLMSRRVIAANNRILAERIAKEIQVIPLQRDDED
B11: sp¦Q13177¦PAK2_HUMAN (protein, UniProt Q13177 2-524, looked up)
Serine/threonine-protein …: SDNGELEDKPPAPPVRMSSTIFSTGGKDPLSANHSLKPLPSVPEEKKPRHKIISIFSGTEKGSKKKEKERPEISPPSDFEHTIHVGFDAVTGEFTGMPEQWARLLQTSNITKLEQKKNPQAVLDVLKFYDSNTVKQKYLSFTPPEKDGFPSGTPALNAKGTEAPAVVTEEEDDDEETAPPVIAPRPDHTKSIYTRSVIDPVPAPVGDSHVDGAAKSLDKQKKKTKMTDEEIMEKLRTIVSIGDPKKKYTRYEKIGQGASGTVFTATDVALGQEVAIKQINLQKQPKKELIINEILVMKELKNPNIVNFLDSYLVGDELFVVMEYLAGGSLTDVVTETCMDEAQIAAVCRECLQALEFLHANQVIHRDIKSDNVLLGMEGSVKLTDFGFCAQITPEQSKRSTMVGTPYWMAPEVVTRKAYGPKVDIWSLGIMAIEMVEGEPPYLNENPLRALYLIATNGTPELQNPEKLSPIFRDFLNRCLEMDVEKRGSAKELLQHPFLKLAKPLSSLTPLIMAAKEAMKSNR
B12: sp¦Q92900¦RENT1_HUMAN (protein, UniProt Q92900 1-1129, looked up)
Regulator of nonsense …: MSVEAYGPSSQTLTFLDTEEAELLGADTQGSEFEFTDFTLPSQTQTPPGGPGGPGGGGAGGPGGAGAGAAAGQLDAQVGPEGILQNGAVDDSVAKTSQLLAELNFEEDEEDTYYTKDLPIHACSYCGIHDPACVVYCNTSKKWFCNGRGNTSGSHIVNHLVRAKCKEVTLHKDGPLGETVLECYNCGCRNVFLLGFIPAKADSVVVLLCRQPCASQSSLKDINWDSSQWQPLIQDRCFLSWLVKIPSEQEQLRARQITAQQINKLEELWKENPSATLEDLEKPGVDEEPQHVLLRYEDAYQYQNIFGPLVKLEADYDKKLKESQTQDNITVRWDLGLNKKRIAYFTLPKTDSGNEDLVIIWLRDMRLMQGDEICLRYKGDLAPLWKGIGHVIKVPDNYGDEIAIELRSSVGAPVEVTHNFQVDFVWKSTSFDRMQSALKTFAVDETSVSGYIYHKLLGHEVEDVIIKCQLPKRFTAQGLPDLNHSQVYAVKTVLQRPLSLIQGPPGTGKTVTSATIVYHLARQGNGPVLVCAPSNIAVDQLTEKIHQTGLKVVRLCAKSREAIDSPVSFLALHNQIRNMDSMPELQKLQQLKDETGELSSADEKRYRALKRTAERELLMNADVICCTCVGAGDPRLAKMQFRSILIDESTQATEPECMVPVVLGAKQLILVGDHCQLGPVVMCKKAAKAGLSQSLFERLVVLGIRPIRLQVQYRMHPALSAFPSNIFYEGSLQNGVTAADRVKKGFDFQWPQPDKPMFFYVTQGQEEIASSGTSYLNRTEAANVEKITTKLLKAGAKPDQIGIITPYEGQRSYLVQYMQFSGSLHTKLYQEVEIASVDAFQGREKDFIILSCVRANEHQGIGFLNDPRRLNVALTRARYGVIIVGNPKALSKQPLWNHLLNYYKEQKVLVEGPLNNLRESLMQFSKPRKLVNTINPGARFMTTAMYDAREAIIPGSVYDRSSQGRPSSMYFQTHDQIGMISAGPSHVAAMNIPIPFNLVMPPMPPPGYFGQANGPAAGRGTPKGKTGRGGRQKNRFGLPGPSQTNLPNSQASQDVASQPFSQGALTQGYISMSQPSQMSQPGLSQPELSQDSYLGDEFKSQIDVALSQDSTYQGERAYQHGGVTGLSQY
B13: sp¦P11766¦ADHX_HUMAN (protein, UniProt P11766 2-374, looked up)
Alcohol dehydrogenase class-3: ANEVIKCKAAVAWEAGKPLSIEEIEVAPPKAHEVRIKIIATAVCHTDAYTLSGADPEGCFPVILGHEGAGIVESVGEGVTKLKAGDTVIPLYIPQCGECKFCLNPKTNLCQKIRVTQGKGLMPDGTSRFTCKGKTILHYMGTSTFSEYTVVADISVAKIDPLAPLDKVCLLGCGISTGYGAAVNTAKLEPGSVCAVFGLGGVGLAVIMGCKVAGASRIIGVDINKDKFARAKEFGATECINPQDFSKPIQEVLIEMTDGGVDYSFECIGNVKVMRAALEACHKGWGVSVVVGVAASGEEIATRPFQLVTGRTWKGTAFGGWKSVESVPKLVSEYMSKKIKVDEFVTHNLSFDEINKAFELMHSGKSIRTVVKI

Tested on: human HL60 cells
Assay: SWATH-MS proteomics, differential protein representation, akirin2 KO vs WT HL60 cells
Format: cell-based
Details: SWATH-MS, akirin2 KO vs WT HL60 cells; over-represented in KO
How it was run: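 Three biological replicates per genotype; 150 µg protein FASP/trypsin digested; IDA library (3 µg digest); SWATH variable windows, 5 µg/sample, 3.6 s cycle; gradient 5–30% B 120 min then 30–60% B 15 min; 1% global FDR; TAS normalization.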

Point of comparison: B1, “Fold Change” value 2.847. Against it:
- B2 — lower, 2.81
- B3 — lower, 2.789
- B4 — lower, 2.742
- B5 — lower, 2.6697
- B6 — lower, 2.563

Point of comparison: B1, “Log (Fold Change)” value 0.4544. Against it:
- B2 — within 0.2 log units, 0.4488
- B3 — within 0.2 log units, 0.4455
- B4 — within 0.2 log units, 0.4381
- B5 — within 0.2 log units, 0.4265
- B6 — within 0.2 log units, 0.4087

Same assay, conditions: akirin2 KO vs WT HL60 cells; sheet "Over-represented in KO"

Point of comparison: B7, “Fold Change” value 1.138. Against it:
- B8 — lower, 1.126
- B9 — lower, 1.125
- B10 — lower, 1.12
- B11 — lower, 1.114
- B12 — lower, 1.105
- B13 — lower, 1.096

Point of comparison: B8, “Log (Fold Change)” value 0.0517. Against it:
- B7 — within 0.2 log units, 0.056
- B9 — within 0.2 log units, 0.05126
- B10 — within 0.2 log units, 0.04931
- B11 — within 0.2 log units, 0.04699
- B12 — within 0.2 log units, 0.04317
- B13 — within 0.2 log units, 0.03978
